Assay: soluble on expression in E. coli; label from the status in PepcDB or PDB records

Sequence | soluble on expression in E. coli
MADNLSDTLKKLKITAVDKTEDSLEGCLDCLLQALAQNNTETSEKIQASGILQLFATLLTPQSSCKAKVANIIAEVAKNEFMRIPCVDAGLISPLVQLLNSKDQEVLLQTGRALGNICYDSHEGRSAVDQAGGAQIVIDHLRSLCSITDPANEKLLTVFCGMLMNYSNENDSLQAQLINMGVIPTLVKLLGIHCQNAALTEMCLVAFGNLAELESSKEQFASTNIAEELVKLFKKQIEHDKREMIFEVLAPLAENDAIKLQLVEAGLVECLLEIVQQKVDSDKEDDITELKTGSDLMVLLLLGDESMQKLFEGGKGSVFQRVLSWIPSNNHQLQLAGALAIANFARNDANCIHMVDNGIVEKLMDLLDRHVEDGNVTVQHAALSALRNLAIPVINKAKMLSAGVTEAVLKFLKSEMPPVQFKLLGTLRMLIDAQEAAEQLGKNVKLVERLVEWCEAKDHAGVMGESNRLLSALIRHSKSKDVIKTIVQSGGIKHLVTMATSEHVIMQNEALVALALIAALELGTAEKDLESAKLVQILHRLLADERSAPEIKYNSMVLICALMGSECLHKEVQDLAFLDVVSKLRSHENKSVAQQASLTEQRLTVES | not soluble
MAREATIARTTNETSIQLSLSLDGEGKAELETGVPFLTHMLDLFAKHGQFDLYIEAKGDTHIDDHHTTEDIGICLGQAIKEALGDKKGIKRYGNAFVPMDDALAQVVIDLSNRPHFEFRGEFPATKVGAFDVELVHEFLWKLALEARMNLHVIVHYGRNTHHMIEAVFKALGRALDEATMIDPRVKGVPSTKGML | not soluble
MQELYLLGVVPSRRFEAVVNSLSKTLDGPKTILEFWVVYRPKDVPPNLPRQPDSWLRLCSNIESHDETDTEWSKNTQWSMYLEGNSEPKREDKCGIRPVNRAKLTNGSVTEFVEKMGYEFSHEYIIQGLEYFFFDTTVRIYQTLIPSQQRSIKPPFHPMNEEQPWILHVYTHVADASNQVAMAKAEANLTKVKTLLSAFCDLKNVRL | soluble
MSNKLETGIQYMQEGNWEEAAKNFTEAIEENPKDALGYINFANLLDVLGDSERAILFYKRALELDDKSAAAYYGLGNVYYGQEQFTEAKAVFEQAMQAGLQSADVTFMLGITHVQLGNDRLALPFLQRATELDENDVEAVFQCGLCFARLEHVQEAKPYFEKVLEMDEEHADAYYNLGVAYVFEENNEKALALFKKATEIQPDHFLAGNGVRLLEQEAE | not soluble
MKRISYIEDFEQWESGFSFYNPVKVRFGEVDMFGHVNNVVAFTYFEEARIALFKELGFMQEWTHASSETMIVVADLQCNFIKQIYFDEQLKVYVKAGSVGNSSLDLHYMVKNAEGEICLVGRGMMVQASKKTGRGEPWPEEWKKKLLQ | soluble
MGARCSKLSVCWWPPHFKSPLLENGAAADDGSGVPVFAEYSLDELRVATDGFSPERIVSEHGEKAPNVVYRGTLFSTGRTVAIKRFGRSAWPDSRQFLEEAMAVGQLRSVRLANLIGCCCENGERLLVAEFMPHETLAKHLFHWETKPLSWAMRVRAAFYVAQALEYCSSKGRALYHDLHAYRVLFDVDGNPRLSCFGLMKNSRDGKSYSTNLAFTPPEYLKTGRVIPESVVYSFGTILLDLLSGKHIPPSHALDLIRGKNYLVLMDSCLEGHVSSSDGTELIRLASRCLQYEGRDRPNLKSVVSALGNLQKDASAPSHALLGIQHDKENTERISLSAIAKVYARADLDEVHEMLENDGYCEDERATFEVSFHSWTGQQVSDSILVKKHGDSAFQSKDFATAVECYSRFIDTGVMVSPTMLARRSFVYMVLGKLQEGLADAKKAADISPEWPTAHYLQGMAYLAMGMEPEGHEELKQGAALEAERNAR | soluble
SSRIGEIKEETTSHLRSCEYKGRPPKAGAEPASEREVS | soluble
MSEQKQDVAATEEQQPVLQIQRIYVKDVSFEAPNLPHIFQQEWKPKLGFDLSTETTQVGDDLYEVVLNISVETTLEDSGDVAFICEVKQAGVFTISGLEDVQMAHCLTSQCPNMLFPYARELVSNLVNRGTFPALNLSPVNFDALFVEYMNRQQAENAEEKSEEEQTKH | soluble
MKPPICRRMSLPPVLAKKEGERIQVPEGGELVCYRNQEDQHLFLKIEYSRETMIKLSSSVFCYARPTGLKEVSDELPELLGLPHSIPLTDSPPNFECLPEPLAHVSGCNSHFSMNHPPPLLSPLRGPVTEADEAMRTLSSHRELQKRLQNMSMRGELSPSGCLVDSCDTPAIRQIRNPQFT | not soluble
MSDSWTERWNDRYSNEIFAYGEKPNNYLKAQLENLQPGTILFAAEGEGRNAVFAACLGWDVQAFDISSEGKKKAFQLAEKNQVTIAYQVGQLETLGYTAGQFDALALIYAHFPATVKSAYHRILSSYVRSGGYIIFEAFSKKHLDYLAKNEQVGGPKEFDMLFSIEEIKADFPDYEILELEEKEIELNEGQFHNGTGSVIRFTGRKKLEHHHHHH | not soluble
MKDLGAEHLAGHEGVQLLGLLNVYLEQEERFQPREKGLSLIEATPENDNTLCPGLRNAKVEDLRSLANFFGSCTETFVLAVNILDRFLALMKVKPKHLSCIGVCSFLLAARIVEEDCNIPSTHDVIRISQCKCTASDIKRMEKIISEKLHYELEATTALNFLHLYHTIILCHTSERKEILSLDKLEAQLKACNCRLIFSKAKPSVLALCLLNLEVETLKSVELLEILLLVKKHSKINDTEFFYWRELVSKCLAEYSSPECCKPDLKKLVWIVSRRTAQNLHNSYYSVPELPTIPEGGCFDESESEDSCEDMSCGEESLSSSPPSDQECTFFFNFKVAQTLCFPSLEHHHHHH | not soluble
GSMPAIMTMLADHAARQLLDFSQKLDINLLDNVVNCLYHGEGAQQRMAQEVLTHLKEHPDAWTRVDTILEFSQNMNTKYYGLQILENVIKTRWKILPRNQCEGIKKYVVGLIIKTSSDPTCVEKEKVYIGKLNMILVQILKQEWPKHWPTFISDIVGASRTSESLCQNNMVILKLLSEEVFDFSSGQITQVKAKHLKDSMCNEFSQIFQLCQFVMENSQNAPLVHATLETLLRFLNWIPLGYIFETKLISTLIYKFLNVPMFRNVSLKCLTEIAGVSVSQYEEQFETLFTLTMMQLKQMLPLNTNIRLAYSNGKDDEQNFIQNLSLFLCTFLKEHGQLLEKRLNLREALMEALHYMLLVSEVEETEIFKICLEYWNHLAAELYRESPFSTSASPLLSGSQHFDIPPRRQLYLTVLSKVRLLMVSRMAKPEEVLVVENDQGEVVREFMKDTDSINLYKNMRETLVYLTHLDYVDTEIIMTKKLQNQVNGTEWSWKNLNTLCWAIGSISGAMHEEDEKRFLVTVIKDLLGLCEQKRGKDNKAIIASNIMYIVGQYPRFLRAHWKFLKTVVNKLFEFMHETHDGVQDMACDTFIKIAQKCRRHFVQVQVGEVMPFIDEILNNINTIICDLQPQQVHTFYEAVGYMIGAQTDQTVQEHLIEKYMLLPNQVWDSIIQQATKNVDILKDPETVKQLGSILKTNVRACKAVGHPFVIQLGRIYLDMLNVYKCLSENISAAIQANGEMVTKQPLIRSMRTVKRETLKLISGWVSRSNDPQMVAENFVPPLLDAVLIDYQRNVPAAREPEVLSTMAIIVNKLGGHITAEIPQIFDAVFECTLNMINKDFEEYPEHRTNFFLLLQAVNSHCFPAFLAIPPAQFKLVLDSIIWAFKHTMRNVADTGLQILFTLLQNVAQEEAAAQSFYQTYFCDILQHIFSVVTDTSHTAGLTMHASILAYMFNLVEEGKISTPLNPGNPVNNQMFIQDYVANLLKSAFPHLQDAQVKLFVTGLFSLNQDIPAFKEHLRDFLVQIKEFAGEDTSDLFLEERETALRQAQEEKHKLQMSVPGILNPHEIPEEMCD | soluble
METSTIIDGGTSFVIDSEKKTITIYVKTADGSSVKAEGCTETVIESGTESTLNIKSSLIILKGNIIEFNCGGDPYTYGNQIKSLNVQGLKNLEKLNCSGNRLTELNIEGLNNLKELACRYNRLSSLDVAHLPALEFLWCTANLLTDLNLTGMSSLKRLGCNNNKLEVLNLEGLTSLEHLWCGNNLLNKLNLTDLKSLTGLNCEKNKLTELDLTGLTALEHLWCSKNLLTKLNLTKALHLQSLDCSSNMLTELNTEELNDLQYLNSSGNCLPLS | not soluble
MAHHHHHHMKTKVELKFLGGLESYLANKSKNYVSLEIESEEFNFENLIAYIRNHIIVDRKDVFSDFVMSDGNVKSCNVMIDDKEYSNYNLSDKGKIKPGIIVLINEYDWEILDTYTYKIKNNDKICFLSTLHGG | soluble
